From patent US20240026007A1 (Boehringer Ingelheim, published 2024)

Key:
[1] = biological target: LL-001 (…)/HLA-E 01:03 monomer complex (human); test: ELISA; monomer complex on neutravidin plate
[2] = biological target: LL-002 (…)/HLA-E 01:03 monomer complex (human); test: ELISA; monomer complex on neutravidin plate
[3] = biological target: V-0013 (…)/HLA-E 01:03 monomer complex (human); test: ELISA; monomer complex on neutravidin plate
[4] = biological target: V-0038 (…)/HLA-E 01:03 monomer complex (human); test: ELISA; monomer complex on neutravidin plate
[5] = biological target: P-0550 (…)/HLA-E monomer complex (human); test: ELISA; monomer complex on neutravidin plate
[6] = biological target: T1, V-0025 (…)/HLA-A2 02:01 monomer complex (human); test: ELISA; monomer complex on neutravidin plate
T1 construct: also called V-0025 on HLA-A2*02:01

[7] = biological target: 0002-A2 (…)/HLA-A2 02:01 monomer complex (human); test: ELISA; monomer complex on neutravidin plate
[8] = biological target: 0003-A2 (…)/HLA-A2 02:01 monomer complex (human); test: ELISA; monomer complex on neutravidin plate
[9] = biological target: T2, V-0018 (…)/HLA-A2 02:01 monomer complex (human); test: ELISA; monomer complex on neutravidin plate
T2 construct: also called ABI-V-0018; negative control (V-0018)

[10] = biological target: T3, HLA-G signal peptide/HLA-E*0103 complex (ABI-V-0025; …) (human); test: label-free (ResoSens), against the Octet value of R4
T3 construct: also called 0025-E 01:03 monomer complex; V-0025 HLA-E 01:03 monomer complex

[11] = biological target: V-0021 (…)/HLA-E 01:03 monomer complex (human); test: ELISA; monomer complex 0.25 µg/ml on neutravidin plate, antibody 1 µg/ml
[12] = biological target: T3, HLA-G signal peptide/HLA-E*0103 complex …; test: label-free (ResoSens, Resonant Sensors); ABX0020 captured by anti-IgG-Fc, V-0025 HLA-E 01:03 monomer in solution (monovalent)
[13] = biological target: T3, HLA-G signal peptide/HLA-E*0103 complex …; test: label-free (ResoSens); V-0025 HLA-E 01:03 monomer on neutravidin plate, ABX0040 in solution

B1: ABX0020 (antibody, human IgG1, kappa)
heavy: not shown
light: DIQMTQSPSSLSASVGDRVTITCRASQSISSYLNWYQQKPGKAPKLLIYAASSLQSGVPSRFSGSGSGTDFTLTISSLQPEDFATYYCQQSATYWDMFGQGTKVEIKRTVAAPSVFIFPPSDEQLKSGTASVVCLLNNFYPREAKVQWKVDNALQSGNSQESVTEQDSKDSTYSLSSTLTLSKADYEKHKVYACEVTHQGLSSPVTKSFNRGEC
notes: also called R2-A12 hIgG1
B1: no binding (tested: antibody 1 µg/ml, antigen 0.25 µg/ml) [1]; no binding (tested: antibody 1 µg/ml, antigen 0.25 µg/ml) [2]; no binding (tested: antibody 1 µg/ml, antigen 0.25 µg/ml) [3]. B1: no binding (tested: antibody 1 µg/ml, antigen 0.25 µg/ml) [4]; no binding (tested: antibody 1 µg/ml, antigen 0.25 µg/ml) [5]; no binding (tested: antibody 1 µg/ml, antigen 0.25 µg/ml) [6]. B1: no binding (tested: antibody 1 µg/ml, antigen 0.25 µg/ml) [7]; no binding (tested: antibody 1 µg/ml, antigen 0.25 µg/ml) [8]; no binding (tested: antibody 1 µg/ml, antigen 0.25 µg/ml) [9]. For the same binder, the “fold improvement of KD over the R4 clone” value [10] was greater than 200 fold, the binding result [11] was “binds” and the Kd [12] was 1.87 nM.

B2: ABX0040 (bispecific antibody)
chain 1: not shown
chain 2: DIQMTQSPSSLSASVGDRVTITCRASQSISSYLNWYQQKPGKAPKLLIYAASSLQSGVPSRFSGSGSGTDFTLTISSLQPEDFATYYCQQSATYWDMFGQGTKVEIKRTVAAPSVFIFPPSDEQLKSGTASVVCLLNNFYPREAKVQWKVDNALQSGNSQESVTEQDSKDSTYSLSSTLTLSKADYEKHKVYACEVTHQGLSSPVTKSFNRGEC
chain 3: EVQLVESGGGLVQPKGSLKLSCAASGFTFNTYAMNWVRQAPGKGLEWVARIRSKYNNYATYYADSVKDRFTISRDDSQSILYLQMNNLKTEDTAMYYCVRHGNFGNSYVSWFAYWGQGTLVTVSS
chain 4: QAVVTQESALTTSPGETVTLTCRSSTGAVTTSNYANWVQEKPDHLFTGLIGGTNKRAPGVPARFSGSLIGDKAALTITGAQTEDEAIYFCALWYSNLWVFGGGTKLTVL
For B2, the Kd [13] was 1.57 nM.
